Values quoted from earlier work in article PMC4435181.

Molecular target: HER2 ECD (Homo sapiens) (UniProt P04626)
Test: ELISA

In the case of trastuzumab, the Kd is given as 0.1 nM.
